The assay addresses T1, CTI2 (Arabidopsis thaliana, UniProt Q9M8T2).
T1 chain: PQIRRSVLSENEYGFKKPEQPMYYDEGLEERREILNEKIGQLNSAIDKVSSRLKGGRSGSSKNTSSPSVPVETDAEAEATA
The experiment in a line: MST.

B1: alphaCT (protein)
chain: INMKKREAVFSDSRKLQGEVDKLKEQILKAKETSTEAEPSSEVLNEMIEKLKSEIDDEYTEAAIAVGLEERLTAMREEFSKASSEEHLMHPVLIEKIEKLKEEFNTRLTDAPNYESLKSKLNMLRDFSRAKAASEATSLKKEINKRFQEAVDRPEIREKVEAIKAEVASSGASSFDELPDALKEKVLKTKGEVEAEMAGVLKSMGLELDAVKQNQKDTAEQIYAANENLQEKLEKLNQEITSKIEEVVRTPEIKSMVELLKVETAKASKTPGVTEAYQKIEALEQQIKQKIAEALNTSGLQEKQDELEKELAAARELAAEESDGSVKEDDDDDEDSSESGKSEMVNPSFA
A word on the Kd: it is the constant that tells how readily two partners part at equilibrium. Read a high Kd as lower affinity. Turning to B1, the Kd was determined as 1400 nM.

These data come from PMC7712654 (2020).
